Assay results reported in paper PMC6351828.

Tests used:
[1] = molecular target: Purified recombinant LC3 protein, Q9GZQ8; assay: ELISA; conditions: chain shown with the change, read off a plot
[2] = molecular target: LC3‐GFP, Q9GZQ8; assay: co-immunoprecipitation (anti-GFP agarose) with quantified immunoblot; conditions: chain shown with the change; HeLa cells co-transfected with LC3-GFP and DISC1-Flag constructs; parent: 1.0; read off a plot

| response ([1]; LC3B 10 nM, parent: est. 0.68) | response ([1]; LC3B 50 nM, parent: est. 1.3) | response ([1]; LC3B 100 nM, parent: est. 2.4) | ratio to parent [2] | Binder |
| --- | --- | --- | --- | --- |
| 0.1 OD (450 nm) | 0.12 OD (450 nm) | 0.12 OD (450 nm) |  | PGSHSAFTSSAAAARLSLGS [DISC1 FSFI peptide (a.a.200–219) F210A; S211A; F212A; I213A] |
|  |  |  | 0.21 | Disrupted‐in‐schizophrenia‐1 (DISC1)‐Flag, wild type, Q9NRI5 F210A; S211A; F212A; I213A (protein) MPGGGPQGAPAAAGGGGVSHRAGSRDCLPPAACFRRRRLARRPGYMRSSTGPGIGFLSPAVGTLFRFPGGVSGEESHHSESRARQCGLDSRGLLVRSPVSKSAAAPTVTSVRGTSAHFGIQLRGGTRLPDRLSWPCGPGSAGWQQEFAAMDSSETLDASWEAACSDGARRVRAAGSLPSAELSSNSCSPGCGPEVPPTPPGSHSAFTSSAAAARLSLGSAGERGEAEGCPPSREAESHCQSPQEMGAKAASLDGPHEDPRCLSRPFSLLATRVSADLAQAARNSSRPERDMHSLPDMDPGSSSSLDPSLAGCGGDGSSGSGDAHSWDTLLRKWEPVLRDCLLRNRRQMEVISLRLKLQKLQEDAVENDDYDKAETLQQRLEDLEQEKISLHFQLPSRQPALSSFLGHLAAQVQAALRRGATQQASGDDTHTPLRMEPRLLEPTAQDSLHVSITRRDWLLQEKQQLQKEIEALQARMFVLEAKDQQLRREIEEQEQQLQWQGCDLTPLVGQLSLGQLQEVSKALQDTLASAGQIPFHAEPPETIRSLQERIKSLNLSLKEITTKVCMSEKFCSTLRKKVNDIETQLPALLEAKMHAISGNHFWTAKDLTEEIRSLTSEREGLEGLLSKLLVLSSRNVKKLGSVKEDYNRLRREVEHQETAYETSVKENTMKYMETLKNKLCSCKCPLLGKVWEADLEACRLLIQSLQLQEARGSLSVEDERQMDDLEGAAPPIPPRLHSEDKRKTPLKVLEEWKTHLIPSLHCAGGEQKEESYILSAELGEKCEDIGKKLLYLEDQLHTAIHSHDEDLIQSLRRELQMVKETLQAMILQLQPAKEAGEREAAASCMTAGVHEAQA |
|  |  |  | 0.9 | Disrupted‐in‐schizophrenia‐1 (DISC1)‐Flag, wild type, Q9NRI5 W327A; D328A; T329A; L330A (protein) MPGGGPQGAPAAAGGGGVSHRAGSRDCLPPAACFRRRRLARRPGYMRSSTGPGIGFLSPAVGTLFRFPGGVSGEESHHSESRARQCGLDSRGLLVRSPVSKSAAAPTVTSVRGTSAHFGIQLRGGTRLPDRLSWPCGPGSAGWQQEFAAMDSSETLDASWEAACSDGARRVRAAGSLPSAELSSNSCSPGCGPEVPPTPPGSHSAFTSSFSFIRLSLGSAGERGEAEGCPPSREAESHCQSPQEMGAKAASLDGPHEDPRCLSRPFSLLATRVSADLAQAARNSSRPERDMHSLPDMDPGSSSSLDPSLAGCGGDGSSGSGDAHSAAAALRKWEPVLRDCLLRNRRQMEVISLRLKLQKLQEDAVENDDYDKAETLQQRLEDLEQEKISLHFQLPSRQPALSSFLGHLAAQVQAALRRGATQQASGDDTHTPLRMEPRLLEPTAQDSLHVSITRRDWLLQEKQQLQKEIEALQARMFVLEAKDQQLRREIEEQEQQLQWQGCDLTPLVGQLSLGQLQEVSKALQDTLASAGQIPFHAEPPETIRSLQERIKSLNLSLKEITTKVCMSEKFCSTLRKKVNDIETQLPALLEAKMHAISGNHFWTAKDLTEEIRSLTSEREGLEGLLSKLLVLSSRNVKKLGSVKEDYNRLRREVEHQETAYETSVKENTMKYMETLKNKLCSCKCPLLGKVWEADLEACRLLIQSLQLQEARGSLSVEDERQMDDLEGAAPPIPPRLHSEDKRKTPLKVLEEWKTHLIPSLHCAGGEQKEESYILSAELGEKCEDIGKKLLYLEDQLHTAIHSHDEDLIQSLRRELQMVKETLQAMILQLQPAKEAGEREAAASCMTAGVHEAQA |
|  |  |  | 1.1 | Disrupted‐in‐schizophrenia‐1 (DISC1)‐Flag, wild type, Q9NRI5 Y646A; N647A; R648A; L649A (protein) MPGGGPQGAPAAAGGGGVSHRAGSRDCLPPAACFRRRRLARRPGYMRSSTGPGIGFLSPAVGTLFRFPGGVSGEESHHSESRARQCGLDSRGLLVRSPVSKSAAAPTVTSVRGTSAHFGIQLRGGTRLPDRLSWPCGPGSAGWQQEFAAMDSSETLDASWEAACSDGARRVRAAGSLPSAELSSNSCSPGCGPEVPPTPPGSHSAFTSSFSFIRLSLGSAGERGEAEGCPPSREAESHCQSPQEMGAKAASLDGPHEDPRCLSRPFSLLATRVSADLAQAARNSSRPERDMHSLPDMDPGSSSSLDPSLAGCGGDGSSGSGDAHSWDTLLRKWEPVLRDCLLRNRRQMEVISLRLKLQKLQEDAVENDDYDKAETLQQRLEDLEQEKISLHFQLPSRQPALSSFLGHLAAQVQAALRRGATQQASGDDTHTPLRMEPRLLEPTAQDSLHVSITRRDWLLQEKQQLQKEIEALQARMFVLEAKDQQLRREIEEQEQQLQWQGCDLTPLVGQLSLGQLQEVSKALQDTLASAGQIPFHAEPPETIRSLQERIKSLNLSLKEITTKVCMSEKFCSTLRKKVNDIETQLPALLEAKMHAISGNHFWTAKDLTEEIRSLTSEREGLEGLLSKLLVLSSRNVKKLGSVKEDAAAARREVEHQETAYETSVKENTMKYMETLKNKLCSCKCPLLGKVWEADLEACRLLIQSLQLQEARGSLSVEDERQMDDLEGAAPPIPPRLHSEDKRKTPLKVLEEWKTHLIPSLHCAGGEQKEESYILSAELGEKCEDIGKKLLYLEDQLHTAIHSHDEDLIQSLRRELQMVKETLQAMILQLQPAKEAGEREAAASCMTAGVHEAQA |
